* marks the point of attachment. Palmitoyl = CCCCCCCCCCCCCCCC(=O)*

Fold Shift of EC50 and Inhibition of Maximal Response data for nine molecules are collected here from patent US20110294738A1, “PTHR1 RECEPTOR COMPOUNDS” (priority 2008, published 2011).

The labels stand for the following.
B1: Compound 86 (peptide)
peptide: Palmitoyl-TNAGRSDTRQQYRKLLFA-NH2
SMILES: CCCCCCCCCCCCCCCC(=O)N[C@H](C(=O)N[C@@H](CC(N)=O)C(=O)N[C@@H](C)C(=O)NCC(=O)N[C@@H](CCCNC(=N)N)C(=O)N[C@@H](CO)C(=O)N[C@@H](CC(=O)O)C(=O)N[C@H](C(=O)N[C@@H](CCCNC(=N)N)C(=O)N[C@@H](CCC(N)=O)C(=O)N[C@@H](CCC(N)=O)C(=O)N[C@@H](Cc1ccc(O)cc1)C(=O)N[C@@H](CCCNC(=N)N)C(=O)N[C@@H](CCCCN)C(=O)N[C@@H](CC(C)C)C(=O)N[C@@H](CC(C)C)C(=O)N[C@@H](Cc1ccccc1)C(=O)N[C@@H](C)C(N)=O)[C@@H](C)O)[C@@H](C)O
B2: Compound 34 (peptide)
peptide: Palmitoyl-LYLHSLIFMAFFSEKKYLWGFT-NH2
SMILES: CCCCCCCCCCCCCCCC(=O)N[C@@H](CC(C)C)C(=O)N[C@@H](Cc1ccc(O)cc1)C(=O)N[C@@H](CC(C)C)C(=O)N[C@@H](Cc1c[nH]cn1)C(=O)N[C@@H](CO)C(=O)N[C@@H](CC(C)C)C(=O)N[C@H](C(=O)N[C@@H](Cc1ccccc1)C(=O)N[C@@H](CCSC)C(=O)N[C@@H](C)C(=O)N[C@@H](Cc1ccccc1)C(=O)N[C@@H](Cc1ccccc1)C(=O)N[C@@H](CO)C(=O)N[C@@H](CCC(=O)O)C(=O)N[C@@H](CCCCN)C(=O)N[C@@H](CCCCN)C(=O)N[C@@H](Cc1ccc(O)cc1)C(=O)N[C@@H](CC(C)C)C(=O)N[C@@H](Cc1c[nH]c2ccccc12)C(=O)NCC(=O)N[C@@H](Cc1ccccc1)C(=O)N[C@H](C(N)=O)[C@@H](C)O)[C@@H](C)CC
B3: Compound 82 (peptide)
peptide: Palmitoyl-TNAGRSATRQQYRKLL-NH2
SMILES: CCCCCCCCCCCCCCCC(=O)N[C@H](C(=O)N[C@@H](CC(N)=O)C(=O)N[C@@H](C)C(=O)NCC(=O)N[C@@H](CCCNC(=N)N)C(=O)N[C@@H](CO)C(=O)N[C@@H](C)C(=O)N[C@H](C(=O)N[C@@H](CCCNC(=N)N)C(=O)N[C@@H](CCC(N)=O)C(=O)N[C@@H](CCC(N)=O)C(=O)N[C@@H](Cc1ccc(O)cc1)C(=O)N[C@@H](CCCNC(=N)N)C(=O)N[C@@H](CCCCN)C(=O)N[C@@H](CC(C)C)C(=O)N[C@@H](CC(C)C)C(N)=O)[C@@H](C)O)[C@@H](C)O
B4: Compound 83 (peptide)
peptide: Palmitoyl-TNAGRSDTRQQYRKLLF-NH2
SMILES: CCCCCCCCCCCCCCCC(=O)N[C@H](C(=O)N[C@@H](CC(N)=O)C(=O)N[C@@H](C)C(=O)NCC(=O)N[C@@H](CCCNC(=N)N)C(=O)N[C@@H](CO)C(=O)N[C@@H](CC(=O)O)C(=O)N[C@H](C(=O)N[C@@H](CCCNC(=N)N)C(=O)N[C@@H](CCC(N)=O)C(=O)N[C@@H](CCC(N)=O)C(=O)N[C@@H](Cc1ccc(O)cc1)C(=O)N[C@@H](CCCNC(=N)N)C(=O)N[C@@H](CCCCN)C(=O)N[C@@H](CC(C)C)C(=O)N[C@@H](CC(C)C)C(=O)N[C@@H](Cc1ccccc1)C(N)=O)[C@@H](C)O)[C@@H](C)O
B5: Compound 80 (peptide)
peptide: Palmitoyl-TNAARSDTRQQYRKLL-NH2
SMILES: CCCCCCCCCCCCCCCC(=O)N[C@H](C(=O)N[C@@H](CC(N)=O)C(=O)N[C@@H](C)C(=O)N[C@@H](C)C(=O)N[C@@H](CCCNC(=N)N)C(=O)N[C@@H](CO)C(=O)N[C@@H](CC(=O)O)C(=O)N[C@H](C(=O)N[C@@H](CCCNC(=N)N)C(=O)N[C@@H](CCC(N)=O)C(=O)N[C@@H](CCC(N)=O)C(=O)N[C@@H](Cc1ccc(O)cc1)C(=O)N[C@@H](CCCNC(=N)N)C(=O)N[C@@H](CCCCN)C(=O)N[C@@H](CC(C)C)C(=O)N[C@@H](CC(C)C)C(N)=O)[C@@H](C)O)[C@@H](C)O
B6: Compound 84 (peptide)
peptide: Palmitoyl-TNAGRSDTRQQYRKLLK-NH2
SMILES: CCCCCCCCCCCCCCCC(=O)N[C@H](C(=O)N[C@@H](CC(N)=O)C(=O)N[C@@H](C)C(=O)NCC(=O)N[C@@H](CCCNC(=N)N)C(=O)N[C@@H](CO)C(=O)N[C@@H](CC(=O)O)C(=O)N[C@H](C(=O)N[C@@H](CCCNC(=N)N)C(=O)N[C@@H](CCC(N)=O)C(=O)N[C@@H](CCC(N)=O)C(=O)N[C@@H](Cc1ccc(O)cc1)C(=O)N[C@@H](CCCNC(=N)N)C(=O)N[C@@H](CCCCN)C(=O)N[C@@H](CC(C)C)C(=O)N[C@@H](CC(C)C)C(=O)N[C@@H](CCCCN)C(N)=O)[C@@H](C)O)[C@@H](C)O
B7: Compound 85 (peptide)
peptide: Palmitoyl-TNAGRSDTRQQYRKLLFS-NH2
SMILES: CCCCCCCCCCCCCCCC(=O)N[C@H](C(=O)N[C@@H](CC(N)=O)C(=O)N[C@@H](C)C(=O)NCC(=O)N[C@@H](CCCNC(=N)N)C(=O)N[C@@H](CO)C(=O)N[C@@H](CC(=O)O)C(=O)N[C@H](C(=O)N[C@@H](CCCNC(=N)N)C(=O)N[C@@H](CCC(N)=O)C(=O)N[C@@H](CCC(N)=O)C(=O)N[C@@H](Cc1ccc(O)cc1)C(=O)N[C@@H](CCCNC(=N)N)C(=O)N[C@@H](CCCCN)C(=O)N[C@@H](CC(C)C)C(=O)N[C@@H](CC(C)C)C(=O)N[C@@H](Cc1ccccc1)C(=O)N[C@@H](CO)C(N)=O)[C@@H](C)O)[C@@H](C)O
B8: Compound 79 (peptide)
peptide: Palmitoyl-TNAGRSDARQQYRKLL-NH2
SMILES: CCCCCCCCCCCCCCCC(=O)N[C@H](C(=O)N[C@@H](CC(N)=O)C(=O)N[C@@H](C)C(=O)NCC(=O)N[C@@H](CCCNC(=N)N)C(=O)N[C@@H](CO)C(=O)N[C@@H](CC(=O)O)C(=O)N[C@@H](C)C(=O)N[C@@H](CCCNC(=N)N)C(=O)N[C@@H](CCC(N)=O)C(=O)N[C@@H](CCC(N)=O)C(=O)N[C@@H](Cc1ccc(O)cc1)C(=O)N[C@@H](CCCNC(=N)N)C(=O)N[C@@H](CCCCN)C(=O)N[C@@H](CC(C)C)C(=O)N[C@@H](CC(C)C)C(N)=O)[C@@H](C)O
B9: Compound 81 (peptide)
peptide: Palmitoyl-TNAGRSDTRAQYRKLL-NH2
SMILES: CCCCCCCCCCCCCCCC(=O)N[C@H](C(=O)N[C@@H](CC(N)=O)C(=O)N[C@@H](C)C(=O)NCC(=O)N[C@@H](CCCNC(=N)N)C(=O)N[C@@H](CO)C(=O)N[C@@H](CC(=O)O)C(=O)N[C@H](C(=O)N[C@@H](CCCNC(=N)N)C(=O)N[C@@H](C)C(=O)N[C@@H](CCC(N)=O)C(=O)N[C@@H](Cc1ccc(O)cc1)C(=O)N[C@@H](CCCNC(=N)N)C(=O)N[C@@H](CCCCN)C(=O)N[C@@H](CC(C)C)C(=O)N[C@@H](CC(C)C)C(N)=O)[C@@H](C)O)[C@@H](C)O

The target of this assay is PTHR1 receptor.
Sequence of PTHR1 receptor (P25961 whole entry): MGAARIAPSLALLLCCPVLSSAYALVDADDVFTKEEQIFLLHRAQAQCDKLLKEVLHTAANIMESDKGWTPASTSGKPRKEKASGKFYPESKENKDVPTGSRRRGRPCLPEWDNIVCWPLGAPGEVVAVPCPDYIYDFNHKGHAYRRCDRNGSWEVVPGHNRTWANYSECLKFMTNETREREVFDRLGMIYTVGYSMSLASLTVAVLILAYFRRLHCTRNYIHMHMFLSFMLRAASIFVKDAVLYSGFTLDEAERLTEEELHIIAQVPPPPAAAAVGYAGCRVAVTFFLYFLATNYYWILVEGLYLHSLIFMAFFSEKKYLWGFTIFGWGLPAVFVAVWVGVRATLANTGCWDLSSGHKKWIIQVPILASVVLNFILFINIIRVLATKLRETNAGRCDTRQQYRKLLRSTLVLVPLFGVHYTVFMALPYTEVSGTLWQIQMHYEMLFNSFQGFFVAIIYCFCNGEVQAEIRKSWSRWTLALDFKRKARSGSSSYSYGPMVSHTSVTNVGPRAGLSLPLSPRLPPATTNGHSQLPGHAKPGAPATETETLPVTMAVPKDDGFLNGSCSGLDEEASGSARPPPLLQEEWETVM
Regarding B1, the Fold Shift of EC50 was determined as 3.6 fold and the Inhibition of Maximal Response is 5.2%.

Turning to B2, the Fold Shift of EC50 came to 1.2 fold and the Inhibition of Maximal Response came out at 4.2%.

Turning to B3, the Fold Shift of EC50 was determined as 23.4 fold and the Inhibition of Maximal Response is -21.6%.

Consider B4, for which the Fold Shift of EC50 amounted to 7 fold and the Inhibition of Maximal Response is -5.8%.

For B5, the Fold Shift of EC50 is 2.3 fold and the Inhibition of Maximal Response came to 0.8%.

As to B6, the Fold Shift of EC50 turned out to be 9.1 fold and the Inhibition of Maximal Response is -25.2%.

On to B7, for which the Fold Shift of EC50 is 6.9 fold and the Inhibition of Maximal Response came to 19.5%.

For the molecule B8, the Fold Shift of EC50 worked out at 7.2 fold and the Inhibition of Maximal Response was determined as 1.2%.

For the molecule B9, the Fold Shift of EC50 amounted to 13.8 fold and the Inhibition of Maximal Response is -20.8%.
